Here are results for three molecules from patent publication US10736988B2, “Bone substitute nanocomposites and methods of synthesis using multiphosphorylated peptides” (UNIVERSITY OF PITTSBURGH—OF THE COMMONWEALTH SYSTEM OF …, priority 2012, dated 2020).

For data set [1], the system named is collagen fibrils. Conditions: cited from earlier work.
The subject of data set [2] is rabbit ulna critical size defect. Nature of the data set: In vivo bone regeneration, rabbit ulna critical size defect. The source says:
A collagen scaffold containing […] indicated by SEQ NO. 2 peptide was implanted into a critical size defect in a rabbit ulna model. […] 2 peptide eight weeks after the surgery. […] FIG. 10A is a low-magnification image and FIG. 10B is a close up of the area in FIG. 10A identified by a rectangle, of H&E stained nondecalcified sections of the regenerating ulnar bone eight weeks after the surgery.

Like-named read-outs stand apart in the source and are kept apart here.

B1: phosphophoryn (protein, UniProt Q9NZW4 463-1301, looked up)
Dentin phosphoprotein: DDPNSSDESNGNDDANSESDNNSSSRGDASYNSDESKDNGNGSDSKGAEDDDSDSTSDTNNSDSNGNGNNGNDDNDKSDSGKGKSDSSDSDSSDSSNSSDSSDSSDSDSSDSNSSSDSDSSDSDSSDSSDSDSSDSSNSSDSSDSSDSSDSSDSSDSSDSKSDSSKSESDSSDSDSKSDSSDSNSSDSSDNSDSSDSSNSSNSSDSSDSSDSSDSSSSSDSSNSSDSSDSSDSSNSSESSDSSDSSDSDSSDSSDSSNSNSSDSDSSNSSDSSDSSNSSDSSDSSDSSNSSDSSDSSDSSNSSDSSDSSDSSDSSDSSNSSDSNDSSNSSDSSDSSNSSDSSNSSDSSDSSDSSDSDSSNSSDSSNSSDSSDSSNSSDSSDSSDSSDGSDSDSSNRSDSSNSSDSSDSSDSSNSSDSSDSSDSNESSNSSDSSDSSNSSDSDSSDSSNSSDSSDSSNSSDSSESSNSSDNSNSSDSSNSSDSSDSSDSSNSSDSSNSSDSSNSSDSSDSNSSDSSDSSNSSDSSDSSDSSDSSDSSDSSNSSDSSDSSDSSDSSNSSDSSNSSDSSNSSDSSDSSDSSDSSDSSDSSDSSDSSNSSDSSDSSDSSDSSDSSDSSDSSDSSESSDSSDSSNSSDSSDSSDSSDSSDSSDSSDSSDSSDSSNSSDSSDSSDSSDSSDSSNSSDSSDSSESSDSSDSSDSSDSSDSSDSSDSSDSSDSSNSSDSSDSSDSSDSSDSSDSSDSSDSSDSSDSSDSSDSSDSSDSSDSSDSSDSNESSDSSDSSDSSDSSNSSDSSDSSDSSDSTSDSNDESDSQSKSGNGNNNGSDSDSDSEGSDSNHSTSDD
modifications: Dentin phosphoprotein
notes: major non-collagenous protein in dentin, Ser-Ser-Asp repeat motifs
On to B1, for which the collagen fibril mineralization result in data set [1] (nonphosphorylated protein) was “no organized mineralization of collagen fibrils was observed”; in data set [1] (phosphorylated protein), “highly organized mineralized collagen fibrils”.

B2: … (peptide)
chain: RRRDEDESSDSSDSSDSSDSSDSSDSSDSSDSSDSSDSSDSSDSSDSSDSSDSSDSSDSSDSSDSSDDEG
modifications: derived from consensus mammalian sequence of DSPP; (8)..(68) [Asp Ser Ser] repeats (n varies from 2 to 20); (1)..(3) Insertion of 3 Arg at the N terminus of the peptide; (4)..(7) Casein kinase 1 recognition motif; (69)..(71) Casein kinase 2 recognition motif
B2: the “bone re-growth (MicroCT)” value in data set [2] (collagen scaffold containing peptide, 8 weeks, versus no implant) is recorded as “significant bone re-growth”. Also, the “bridging of the defect (H&E nondecalcified sections)” value in data set [2] (eight weeks after the surgery) is reported as “almost complete bridging of the critical size defect by bone”.

B3: dentin matrix protein 1 (protein, UniProt Q13316 17-513, looked up)
Dentin matrix acidic …: LPVTRYQNNESEDSEEWKGHLAQAPTPPLESSESSEGSKVSSEEQANEDPSDSTQSEEGLGSDDHQYIYRLAGGFSRSTGKGGDDKDDDEDDSGDDTFGDDDSGPGPKDRQEGGNSRLGSDEDSDDTIQASEESAPQGQDSAQDTTSESRELDNEDRVDSKPEGGDSTQESESEEHWVGGGSDGESSHGDGSELDDEGMQSDDPESIRSERGNSRMNSAGMKSKESGENSEQANTQDSGGSQLLEHPSRKIFRKSRISEEDDRSELDDNNTMEEVKSDSTENSNSRDTGLSQPRRDSKGDSQEDSKENLSQEESQNVDGPSSESSQEANLSSQENSSESQEEVVSESRGDNPDPTTSYVEDQEDSDSSEEDSSHTLSHSKSESREEQADSESSESLNFSEESPESPEDENSSSQEGLQSHSSSAESQSEESHSEEDDSDSQDSSRSKEDSNSTESKSSSEEDGQLKNIEIESRKLTVDAYHNKPIGDQDDNDCQDGY
As for B3, the collagen fibril mineralization result is “no organized mineralization of collagen fibrils was observed” in data set [1] (nonphosphorylated protein) and “highly organized mineralized collagen fibrils” in data set [1] (phosphorylated protein).
